According to patent publication US20240409653A1 (Genmab, published 2024):

Biological target: Human PD-L1 (human, UniProt Q9NZQ7 19-290)
Experiment: cell-based or functional assay

Human PD-L1, sequence (Q9NZQ7 19-290): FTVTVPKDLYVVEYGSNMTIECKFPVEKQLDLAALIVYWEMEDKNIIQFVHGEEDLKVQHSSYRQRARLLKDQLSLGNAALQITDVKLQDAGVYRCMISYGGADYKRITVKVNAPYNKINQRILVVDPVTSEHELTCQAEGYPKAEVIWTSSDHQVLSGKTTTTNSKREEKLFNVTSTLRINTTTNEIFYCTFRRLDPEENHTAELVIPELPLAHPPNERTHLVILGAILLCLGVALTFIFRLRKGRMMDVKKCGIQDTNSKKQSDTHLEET

B1: GEN1046 (bispecific antibody, human IgG1, kappa, lambda)
heavy 1: EVQLVESGGGLVQPGRSLRLSCTASGFSLNDYWMSWVRQAPGKGLEWVGYIDVGGSLYYAASVKGRFTISRDDSKSIAYLQMNSLKTEDTAVYYCARGGLTYGFDLWGQGTLVTVSSASTKGPSVFPLAPSSKSTSGGTAALGCLVKDYFPEPVTVSWNSGALTSGVHTFPAVLQSSGLYSLSSVVTVPSSSLGTQTYICNVNHKPSNTKVDKRVEPKSCDKTHTCPPCPAPEFEGGPSVFLFPPKPKDTLMISRTPEVTCVVVAVSHEDPEVKFNWYVDGVEVHNAKTKPREEQYNSTYRVVSVLTVLHQDWLNGKEYKCKVSNKALPAPIEKTISKAKGQPREPQVYTLPPSREEMTKNQVSLTCLVKGFYPSDIAVEWESNGQPENNYKTTPPVLDSDGSFFLYSRLTVDKSRWQQGNVFSCSVMHEALHNHYTQKSLSLSPG
light 1: DIVMTQSPSSLSASVGDRVTITCQASEDISSYLAWYQQKPGKAPKRLIYGASDLASGVPSRFSASGSGTDYTFTISSLQPEDIATYYCHYYATISGLGVAFGGGTKVEIKRTVAAPSVFIFPPSDEQLKSGTASVVCLLNNFYPREAKVQWKVDNALQSGNSQESVTEQDSKDSTYSLSSTLTLSKADYEKHKVYACEVTHQGLSSPVTKSFNRGEC
heavy 2: EVQLLEPGGGLVQPGGSLRLSCEASGSTFSTYAMSWVRQAPGKGLEWVSGFSGSGGFTFYADSVRGRFTISRDSSKNTLFLQMSSLRAEDTAVYYCAIPARGYNYGSFQHWGQGTLVTVSSASTKGPSVFPLAPSSKSTSGGTAALGCLVKDYFPEPVTVSWNSGALTSGVHTFPAVLQSSGLYSLSSVVTVPSSSLGTQTYICNVNHKPSNTKVDKRVEPKSCDKTHTCPPCPAPEFEGGPSVFLFPPKPKDTLMISRTPEVTCVVVAVSHEDPEVKFNWYVDGVEVHNAKTKPREEQYNSTYRVVSVLTVLHQDWLNGKEYKCKVSNKALPAPIEKTISKAKGQPREPQVYTLPPSREEMTKNQVSLTCLVKGFYPSDIAVEWESNGQPENNYKTTPPVLDSDGSFLLYSKLTVDKSRWQQGNVFSCSVMHEALHNHYTQKSLSLSPG
light 2: SYVLTQPPSVSVAPGQTARITCGGNNIGSKSVHWYQQKPGQAPVLVVYDDNDRPSGLPERFSGSNSGNTATLTISRVEAGDEADYYCQVWDSSSDHVVFGGGTKLTVLGQPKAAPSVTLFPPSSEELQANKATLVCLISDFYPGAVTVAWKADSSPVKAGVETTTPSKQSNNKYAASSYLSLTPEQWKSHRSYSCQVTHEGSTVEKTVAPTECS
With B1 the “EC50 value [µg/ml], CD8+ T-cell expansion, donor 02” value was 0.00523 µg/mL, the “EC50 value [µg/ml], CD8+ T-cell expansion, donor 28” value was 0.00754 µg/mL and the “EC50 value [µg/ml], CD8+ T-cell expansion, donor 72” value was 0.00506 µg/mL. The “EC50 value [µg/ml], CD8+ T-cell expansion, donor 89” value was 0.00776 µg/mL and the “EC50 value [µg/ml], CD8+ T-cell expansion, mean of donors” value was 0.0064 µg/mL.
